Assay results from US20240270846A1 (published 2024).
Numbering of substitutions follows the chain as printed. Names may count otherwise.

B1: CE115HA000 S74P one-arm antibody (antibody, human IgG1, kappa, L234A L235A, N297A, name in Kabat numbering)
heavy: QVQLVESGGGVVQPGRSLRLSCAASGFTFSNAWMHWVRQAPGKGLEWVAQIKAKSNNYATYYAESVKGRFTISRDDPKNSLYLQMNSLKTEDTAVYYCRYVHYGAYYGVDAWGQGTTVTVSSASTKGPSVFPLAPSSKSTSGGTAALGCLVKDYFPEPVTVSWNSGALTSGVHTFPAVLQSSGLYSLSSVVTVPSSSLGTQTYICNVNHKPSNTKVDKKVEPKSCDKTHTCPPCPAPEAAGGPSVFLFPPKPKDTLMISRTPEVTCVVVDVSHEDPEVKFNWYVDGVEVHNAKTKPREEQYASTYRVVSVLTVLHQDWLNGKEYKCKVSNKALPAPIEKTISKAKGQPREPQVYTLPPSRCELTKNQVSLSCAVKGFYPSDIAVEWESNGQPENNYKTTPPVLDSDGSFFLVSKLTVDKSRWQQGNVFSCSVMHEALHNHYTQKSLSLSPDYKDDDDK
chain: EPKSSDKTHTCPPCPAPELLGGPSVFLFPPKPKDTLMISRTPEVTCVVVDVSHEDPEVKFNWYVDGVEVHNAKTKPREEQYNSTYRVVSVLTVLHQDWLNGKEYKCKVSNKALPAPIEKTISKAKGQPREPQVCTLPPSRDELTKNQVSLWCLVKGFYPSDIAVEWESNGQPENNYKTTPPVLDSDGSFFLYSKLTVDKSRWQQGNVFSCSVMHEALHNRYTQKSLSLSP
light: DIVMTQSPLSLPVTPGEPASISCRSSQSLVHSNRNTYLHWYQQKPGQAPRLLIYKVSNRFSGVPDRFSGSGSGTDFTLKISRVEAEDVGVYYCGQGTQVPYTFGQGTKLEIKRTVAAPSVFIFPPSDEQLKSGTASVVCLLNNFYPREAKVQWKVDNALQSGNSQESVTEQDSKDSTYSLSSTLTLSKADYEKHKVYACEVTHQGLSSPVTKSFNRGEC
notes: one-arm antibody (one Fab)
B2: CE115HA000 Y100Q one-arm antibody (antibody, human IgG1, kappa, L234A L235A, N297A, name in Kabat numbering)
heavy: B1 heavy with P77S, Y106Q
chain: B1 chain
light: B1 light
notes: one-arm antibody (one Fab)
B3: CE115HA000 V95G one-arm antibody (antibody, human IgG1, kappa, L234A L235A, N297A, name in Kabat numbering)
heavy: B1 heavy with P77S, V101G
chain: B1 chain
light: B1 light
notes: one-arm antibody (one Fab)
B4: CE115HA000 V100cP one-arm antibody (antibody, human IgG1, kappa, L234A L235A, N297A, name in Kabat numbering)
heavy: B1 heavy with P77S, V109P
chain: B1 chain
light: B1 light
notes: one-arm antibody (one Fab)
B5: CE115HA000 Y100P one-arm antibody (antibody, human IgG1, kappa, L234A L235A, N297A, name in Kabat numbering)
heavy: B1 heavy with P77S, Y106P
chain: B1 chain
light: B1 light
notes: one-arm antibody (one Fab)
B6: CE115HA000 V95E one-arm antibody (antibody, human IgG1, kappa, L234A L235A, N297A, name in Kabat numbering)
heavy: B1 heavy with P77S, V101E
chain: B1 chain
light: B1 light
notes: one-arm antibody (one Fab)
B7: CE115HA000 Y58S one-arm antibody (antibody, human IgG1, kappa, L234A L235A, N297A, name in Kabat numbering)
heavy: B1 heavy with Y61S, P77S
chain: B1 chain
light: B1 light
notes: one-arm antibody (one Fab)
B8: CE115HA000 Y97G one-arm antibody (antibody, human IgG1, kappa, L234A L235A, N297A, name in Kabat numbering)
heavy: B1 heavy with P77S, Y103G
chain: B1 chain
light: B1 light
notes: one-arm antibody (one Fab)
B9: CE115HA000 Y100D one-arm antibody (antibody, human IgG1, kappa, L234A L235A, N297A, name in Kabat numbering)
heavy: B1 heavy with P77S, Y106D
chain: B1 chain
light: B1 light
notes: one-arm antibody (one Fab)
B10: CE115HA000 Y100G one-arm antibody (antibody, human IgG1, kappa, L234A L235A, N297A, name in Kabat numbering)
heavy: B1 heavy with P77S, Y106G
chain: B1 chain
light: B1 light
notes: one-arm antibody (one Fab)
B11: CE115HA000 Y97D one-arm antibody (antibody, human IgG1, kappa, L234A L235A, N297A, name in Kabat numbering)
heavy: B1 heavy with P77S, Y103D
chain: B1 chain
light: B1 light
notes: one-arm antibody (one Fab)
B12: CE115HA000 T57N one-arm antibody (antibody, human IgG1, kappa, L234A L235A, N297A, name in Kabat numbering)
heavy: B1 heavy with T60N, P77S
chain: B1 chain
light: B1 light
notes: one-arm antibody (one Fab)
B13: CE115HA000 V95K one-arm antibody (antibody, human IgG1, kappa, L234A L235A, N297A, name in Kabat numbering)
heavy: B1 heavy with P77S, V101K
chain: B1 chain
light: B1 light
notes: one-arm antibody (one Fab)
B14: CE115HA000 Y100L one-arm antibody (antibody, human IgG1, kappa, L234A L235A, N297A, name in Kabat numbering)
heavy: B1 heavy with P77S, Y106L
chain: B1 chain
light: B1 light
notes: one-arm antibody (one Fab)
B15: CE115HA000 Y100A one-arm antibody (antibody, human IgG1, kappa, L234A L235A, N297A, name in Kabat numbering)
heavy: B1 heavy with P77S, Y106A
chain: B1 chain
light: B1 light
notes: one-arm antibody (one Fab)
B16: CE115HA000 Y58Q one-arm antibody (antibody, human IgG1, kappa, L234A L235A, N297A, name in Kabat numbering)
heavy: B1 heavy with Y61Q, P77S
chain: B1 chain
light: B1 light
notes: one-arm antibody (one Fab)
B17: CE115HA000 Y100K one-arm antibody (antibody, human IgG1, kappa, L234A L235A, N297A, name in Kabat numbering)
heavy: B1 heavy with P77S, Y106K
chain: B1 chain
light: B1 light
notes: one-arm antibody (one Fab)
B18: CE115HA000 Y97S one-arm antibody (antibody, human IgG1, kappa, L234A L235A, N297A, name in Kabat numbering)
heavy: B1 heavy with P77S, Y103S
chain: B1 chain
light: B1 light
notes: one-arm antibody (one Fab)
B19: CE115HA000 Y55S one-arm antibody (antibody, human IgG1, kappa, L234A L235A, N297A, name in Kabat numbering)
heavy: B1 heavy with Y58S, P77S
chain: B1 chain
light: B1 light
notes: one-arm antibody (one Fab)
B20: CE115HA000 V100cE one-arm antibody (antibody, human IgG1, kappa, L234A L235A, N297A, name in Kabat numbering)
heavy: B1 heavy with P77S, V109E
chain: B1 chain
light: B1 light
notes: one-arm antibody (one Fab)
B21: CE115HA000 Y58L one-arm antibody (antibody, human IgG1, kappa, L234A L235A, N297A, name in Kabat numbering)
heavy: B1 heavy with Y61L, P77S
chain: B1 chain
light: B1 light
notes: one-arm antibody (one Fab)
B22: CE115HA000 V95S one-arm antibody (antibody, human IgG1, kappa, L234A L235A, N297A, name in Kabat numbering)
heavy: B1 heavy with P77S, V101S
chain: B1 chain
light: B1 light
notes: one-arm antibody (one Fab)
B23: CE115HA000 Y58N one-arm antibody (antibody, human IgG1, kappa, L234A L235A, N297A, name in Kabat numbering)
heavy: B1 heavy with Y61N, P77S
chain: B1 chain
light: B1 light
notes: one-arm antibody (one Fab)
B24: CE115HA000 S77T one-arm antibody (antibody, human IgG1, kappa, L234A L235A, N297A, name in Kabat numbering)
heavy: B1 heavy with P77S, S80T
chain: B1 chain
light: B1 light
notes: one-arm antibody (one Fab)
B25: CE115HA000 Y97R one-arm antibody (antibody, human IgG1, kappa, L234A L235A, N297A, name in Kabat numbering)
heavy: B1 heavy with P77S, Y103R
chain: B1 chain
light: B1 light
notes: one-arm antibody (one Fab)
B26: CE115HA000 Y97A one-arm antibody (antibody, human IgG1, kappa, L234A L235A, N297A, name in Kabat numbering)
heavy: B1 heavy with P77S, Y103A
chain: B1 chain
light: B1 light
notes: one-arm antibody (one Fab)
B27: CE115HA000 Y97P one-arm antibody (antibody, human IgG1, kappa, L234A L235A, N297A, name in Kabat numbering)
heavy: B1 heavy with P77S, Y103P
chain: B1 chain
light: B1 light
notes: one-arm antibody (one Fab)
B28: CE115HA000 V100cD one-arm antibody (antibody, human IgG1, kappa, L234A L235A, N297A, name in Kabat numbering)
heavy: B1 heavy with P77S, V109D
chain: B1 chain
light: B1 light
notes: one-arm antibody (one Fab)
B29: CE115HA000 V95A one-arm antibody (antibody, human IgG1, kappa, L234A L235A, N297A, name in Kabat numbering)
heavy: B1 heavy with P77S, V101A
chain: B1 chain
light: B1 light
notes: one-arm antibody (one Fab)
B30: CE115HA000 Y100V one-arm antibody (antibody, human IgG1, kappa, L234A L235A, N297A, name in Kabat numbering)
heavy: B1 heavy with P77S, Y106V
chain: B1 chain
light: B1 light
notes: one-arm antibody (one Fab)
B31: CE115HA000 V95D one-arm antibody (antibody, human IgG1, kappa, L234A L235A, N297A, name in Kabat numbering)
heavy: B1 heavy with P77S, V101D
chain: B1 chain
light: B1 light
notes: one-arm antibody (one Fab)
B32: CE115HA000 Y100S one-arm antibody (antibody, human IgG1, kappa, L234A L235A, N297A, name in Kabat numbering)
heavy: B1 heavy with P77S, Y106S
chain: B1 chain
light: B1 light
notes: one-arm antibody (one Fab)
B33: CE115HA000 Y59S one-arm antibody (antibody, human IgG1, kappa, L234A L235A, N297A, name in Kabat numbering)
heavy: B1 heavy with Y62S, P77S
chain: B1 chain
light: B1 light
notes: one-arm antibody (one Fab)

biological target: T1, CD3 epsilon homodimer protein (UniProt P07766 23-126); experiment: SPR Biacore T200, CD3 epsilon homodimer on CM4 chip, antibody as analyte;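 also: Amine-coupled CD3 epsilon homodimer, run at 25 °C in HBS-EP+ buffer, ratio is bound amount of each single-residue H chain variant over that of the parent antibody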
T1 construct: Immobilized on Sensor chip CM4 by amine coupling; construct not described; also called CD3 (CD3 epsilon)
T1 sequence (P07766 23-126): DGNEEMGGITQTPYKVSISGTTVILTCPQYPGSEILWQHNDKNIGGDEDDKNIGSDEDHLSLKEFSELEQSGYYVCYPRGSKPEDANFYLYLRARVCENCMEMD

ratio of amounts bound (Y/X vs CE115HA000)	Binder
0.91	B1
0.8	B2
0.19	B3
0.2	B4
0.48	B5
0.24	B6
0.18	B7
0.18	B8
0.52	B9
1.07	B10
0.24	B11
0.97	B12
0.64	B13
0.7	B14
0.9	B15
0.19	B16
1.07	B17

ratio of amounts bound (Y/X vs CE115HA000)	Binder
0.18	B18
0.26	B19
0.46	B20
0.27	B21
0.22	B22
0.33	B23
0.9	B24
0.27	B25
0.16	B26
0.11	B27
0.44	B28
0.11	B29
0.6	B30
0.24	B31
0.81	B32
0.94	B33
